Measurements: patent US20260184748A1 (University of Pennsylvania, published 2026)
Where no end group is shown, it is not given here.

How the values were obtained:
Experiment in all cases: cell-based or functional assay
[1] = biological target: T1, GALR1 (UniProt P47211 1-349)
T1 sequence (looked up): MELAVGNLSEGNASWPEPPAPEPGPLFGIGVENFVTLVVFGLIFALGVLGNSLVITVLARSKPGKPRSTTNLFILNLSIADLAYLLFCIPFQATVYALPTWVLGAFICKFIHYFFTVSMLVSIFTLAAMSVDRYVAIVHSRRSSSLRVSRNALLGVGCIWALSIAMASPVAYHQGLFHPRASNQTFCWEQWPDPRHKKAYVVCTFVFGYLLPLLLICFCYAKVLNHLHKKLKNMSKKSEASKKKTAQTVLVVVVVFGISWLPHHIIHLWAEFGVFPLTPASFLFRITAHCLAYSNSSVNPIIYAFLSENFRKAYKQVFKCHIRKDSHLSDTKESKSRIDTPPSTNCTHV

[2] = biological target: T2, GIPR (UniProt P48546 22-466)
T2 sequence (looked up): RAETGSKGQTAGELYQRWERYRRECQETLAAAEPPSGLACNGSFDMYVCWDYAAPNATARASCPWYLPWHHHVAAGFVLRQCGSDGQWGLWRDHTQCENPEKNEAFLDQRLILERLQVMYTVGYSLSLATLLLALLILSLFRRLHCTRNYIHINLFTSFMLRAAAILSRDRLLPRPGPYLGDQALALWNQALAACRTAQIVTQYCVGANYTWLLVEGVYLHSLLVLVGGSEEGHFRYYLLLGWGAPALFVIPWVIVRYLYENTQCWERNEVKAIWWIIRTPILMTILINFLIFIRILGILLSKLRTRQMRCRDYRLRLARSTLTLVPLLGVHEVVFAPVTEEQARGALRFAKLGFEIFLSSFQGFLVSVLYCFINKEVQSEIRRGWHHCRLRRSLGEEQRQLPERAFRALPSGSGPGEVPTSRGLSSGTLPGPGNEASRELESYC

[3] = biological target: TACR1 (UniProt P25103 1-407)
Chain of TACR1 (P25103 whole entry): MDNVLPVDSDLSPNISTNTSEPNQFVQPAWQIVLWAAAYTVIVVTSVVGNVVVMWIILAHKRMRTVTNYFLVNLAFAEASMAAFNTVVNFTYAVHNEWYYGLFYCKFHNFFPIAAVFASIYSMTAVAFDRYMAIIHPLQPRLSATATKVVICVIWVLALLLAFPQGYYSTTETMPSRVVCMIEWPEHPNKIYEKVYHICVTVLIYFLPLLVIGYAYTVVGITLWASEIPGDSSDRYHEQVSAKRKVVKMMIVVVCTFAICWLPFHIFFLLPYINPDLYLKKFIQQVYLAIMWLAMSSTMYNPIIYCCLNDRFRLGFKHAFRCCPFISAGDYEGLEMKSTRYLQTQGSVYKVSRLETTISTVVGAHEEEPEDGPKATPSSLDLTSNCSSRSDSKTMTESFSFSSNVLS

[4] = biological target: HTR5A (UniProt P47898 1-357)
Chain of HTR5A (P47898 whole entry): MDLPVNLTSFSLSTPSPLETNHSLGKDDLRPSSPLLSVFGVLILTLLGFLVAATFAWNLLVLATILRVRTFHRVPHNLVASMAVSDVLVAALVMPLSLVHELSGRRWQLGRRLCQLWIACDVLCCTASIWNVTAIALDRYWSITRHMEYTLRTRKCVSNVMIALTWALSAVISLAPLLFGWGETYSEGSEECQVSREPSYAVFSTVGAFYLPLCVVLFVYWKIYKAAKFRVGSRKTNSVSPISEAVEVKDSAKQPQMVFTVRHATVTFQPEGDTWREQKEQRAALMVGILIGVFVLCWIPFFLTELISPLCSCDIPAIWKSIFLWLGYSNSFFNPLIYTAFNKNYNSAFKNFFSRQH

[5] = biological target: T3, CALCR (UniProt P30988 25-474, limits assumed)
T3 sequence (looked up): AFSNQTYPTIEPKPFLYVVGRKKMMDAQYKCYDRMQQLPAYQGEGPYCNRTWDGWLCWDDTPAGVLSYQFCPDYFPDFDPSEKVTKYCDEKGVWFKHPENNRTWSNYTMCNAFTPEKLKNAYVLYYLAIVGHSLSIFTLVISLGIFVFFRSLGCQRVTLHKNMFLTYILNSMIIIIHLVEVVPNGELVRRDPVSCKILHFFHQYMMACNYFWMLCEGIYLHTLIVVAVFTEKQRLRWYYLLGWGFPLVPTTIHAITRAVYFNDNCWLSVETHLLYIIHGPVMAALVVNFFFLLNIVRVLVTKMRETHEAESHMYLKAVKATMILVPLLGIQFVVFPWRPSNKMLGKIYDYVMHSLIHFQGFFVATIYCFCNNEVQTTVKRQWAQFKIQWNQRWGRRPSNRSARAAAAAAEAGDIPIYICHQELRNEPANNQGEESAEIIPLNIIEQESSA

[6] = biological target: T4, EDNRB (UniProt P24530 27-442)
T4 sequence (looked up): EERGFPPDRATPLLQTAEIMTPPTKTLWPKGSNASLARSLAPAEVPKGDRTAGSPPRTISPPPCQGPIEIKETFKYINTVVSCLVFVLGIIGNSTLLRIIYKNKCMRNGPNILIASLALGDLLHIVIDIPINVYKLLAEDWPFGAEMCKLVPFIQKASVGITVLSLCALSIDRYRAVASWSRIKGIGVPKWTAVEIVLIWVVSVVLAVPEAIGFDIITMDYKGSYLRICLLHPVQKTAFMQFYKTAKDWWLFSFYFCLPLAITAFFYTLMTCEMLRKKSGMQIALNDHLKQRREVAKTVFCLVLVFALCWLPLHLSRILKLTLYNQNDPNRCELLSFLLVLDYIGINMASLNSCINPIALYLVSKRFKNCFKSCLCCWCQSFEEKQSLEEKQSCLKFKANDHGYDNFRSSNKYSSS

[7] = biological target: T5, CX3CR1 (UniProt P49238 1-355)
T5 sequence (looked up): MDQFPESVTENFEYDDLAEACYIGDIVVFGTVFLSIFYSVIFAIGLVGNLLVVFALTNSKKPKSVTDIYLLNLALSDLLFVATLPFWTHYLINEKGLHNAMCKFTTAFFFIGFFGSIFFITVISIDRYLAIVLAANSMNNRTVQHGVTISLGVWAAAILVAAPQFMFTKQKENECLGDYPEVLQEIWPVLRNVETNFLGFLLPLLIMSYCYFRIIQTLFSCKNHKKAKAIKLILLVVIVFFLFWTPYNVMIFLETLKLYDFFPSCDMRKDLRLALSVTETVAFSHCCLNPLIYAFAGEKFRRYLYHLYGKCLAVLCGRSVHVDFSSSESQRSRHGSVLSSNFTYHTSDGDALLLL

[8] = biological target: GCGR (UniProt P47871 26-477)
[9] = biological target: SSTR2 (UniProt P30874 1-369)
Chain of SSTR2 (P30874 whole entry): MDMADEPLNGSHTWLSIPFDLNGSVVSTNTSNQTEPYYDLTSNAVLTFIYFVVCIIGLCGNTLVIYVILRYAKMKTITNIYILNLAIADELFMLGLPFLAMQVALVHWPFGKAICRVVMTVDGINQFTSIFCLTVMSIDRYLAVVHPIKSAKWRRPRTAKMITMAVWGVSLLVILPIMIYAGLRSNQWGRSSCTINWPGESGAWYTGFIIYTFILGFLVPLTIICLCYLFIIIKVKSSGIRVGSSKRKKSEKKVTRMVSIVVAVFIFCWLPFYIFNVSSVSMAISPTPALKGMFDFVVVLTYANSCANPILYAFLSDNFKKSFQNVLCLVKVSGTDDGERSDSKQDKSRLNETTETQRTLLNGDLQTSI

[10] = biological target: T6, GLP2R (UniProt O95838 1-553, limits assumed)
T6 sequence (looked up): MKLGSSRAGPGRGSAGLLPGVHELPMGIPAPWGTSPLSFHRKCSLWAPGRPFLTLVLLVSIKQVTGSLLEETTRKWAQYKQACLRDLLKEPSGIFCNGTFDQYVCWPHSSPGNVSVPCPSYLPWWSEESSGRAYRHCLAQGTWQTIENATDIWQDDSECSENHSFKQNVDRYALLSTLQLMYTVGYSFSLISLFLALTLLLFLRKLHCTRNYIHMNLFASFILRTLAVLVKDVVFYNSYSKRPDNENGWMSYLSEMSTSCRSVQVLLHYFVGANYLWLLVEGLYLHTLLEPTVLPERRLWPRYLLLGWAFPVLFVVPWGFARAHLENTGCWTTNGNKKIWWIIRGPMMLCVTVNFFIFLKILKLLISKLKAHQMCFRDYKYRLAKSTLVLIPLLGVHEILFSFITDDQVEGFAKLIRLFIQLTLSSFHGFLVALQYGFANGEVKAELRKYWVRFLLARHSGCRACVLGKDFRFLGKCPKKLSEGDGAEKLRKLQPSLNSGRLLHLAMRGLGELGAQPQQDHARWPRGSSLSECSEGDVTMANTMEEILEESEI

[11] = biological target: MC4R (UniProt P32245 1-332)
Chain of MC4R (P32245 whole entry): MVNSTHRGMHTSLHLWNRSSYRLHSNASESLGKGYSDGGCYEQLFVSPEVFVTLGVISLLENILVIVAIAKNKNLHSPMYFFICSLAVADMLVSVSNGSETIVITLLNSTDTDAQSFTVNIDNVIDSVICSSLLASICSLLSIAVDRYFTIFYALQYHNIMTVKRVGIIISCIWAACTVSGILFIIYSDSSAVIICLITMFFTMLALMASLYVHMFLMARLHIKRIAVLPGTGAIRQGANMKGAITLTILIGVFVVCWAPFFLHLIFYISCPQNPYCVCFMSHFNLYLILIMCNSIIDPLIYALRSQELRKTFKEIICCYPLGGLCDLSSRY

QATVGDVNTDRPGLLDLK (also: synthesised on Rink amide resin, C-terminal amide not given here outright) [octadecaneuropeptide (ODN)]
% Activity, arrestin, antagonist mode, 2.5 uM [1]: -22.5%
% Activity, arrestin, antagonist mode, 2.5 uM [2]: -18.9%
% Activity, arrestin, antagonist mode, 2.5 uM [3]: -17.6%
% Activity, arrestin, antagonist mode, 2.5 uM [4]: -0.3%
% Activity, arrestin, antagonist mode, 2.5 uM [5]: -22.3%
% Activity, arrestin, antagonist mode, 2.5 uM [6]: -9.9%
% Activity, arrestin, antagonist mode, 2.5 uM [7]: -0.8%
% Activity, arrestin, antagonist mode, 2.5 uM [8]: -17.2%
% Activity, arrestin, antagonist mode, 2.5 uM [9]: -20.5%
% Activity, arrestin, antagonist mode, 2.5 uM [10]: -15.4%
% Activity, arrestin, antagonist mode, 2.5 uM [11]: -4.6%
